From doi:10.1101/2022.09.03.506457 (bioRxiv, 2022)

B2: Methanocaldococcus jannaschii fumarate hydratase α-subunit (enzyme)
chain: KISDVVVELFREAAIYLPEDVKNALEEAYKKESSEISKNTLKAIIENNKIAEETQVPLCQDTGVPIVFLKIGKNINSSEIMKIIEEIKEGVKKATEEVPLRPNVVHPLTRENFKTNVGLNSPFINIEFDESLDREIEIIAFPKGAGSENMSALKMLKPSDGIEGIKNFVLETIANAGGKPCPPIVVGIGIGGTADVALKLAKKALLRKIGERHRDKEIANLEKELLEKINSLGIGAMGLGGDITALDVFIEIAGCHTASLPVGICIQCWADRRAIKRIKLDAKL

How the values were obtained:
[1] = target: B2; experiment: ITC
SEC = target: the molecule itself; experiment: SEC
crystal structure = target: the molecule itself; experiment: crystal structure

B1: Methanocaldococcus jannaschii fumarate hydratase β-subunit (enzyme)
chain: MEYTFNKLTKKDVKKLKVGDIVYLNGKIYTARDEAHLKIIEMLKSNEKLPFDLNESIIYHAGPIMKKVNDSWVCVSIGPTTSARMNDVEEEFIKLTNISAIVGKGGMKKELLKTFEDYGVVYLAAPGGCAALLANSVKRVDNVYFLDELGMPEAVWELEVNNFGPLIVAMDSHGNSIYEEVNKKVYEKLNELIGL
B1 gave a Kd [1] of 595 ± 19 nM.

B2 was tested, and the “stoichiometry N” value (SEC) was 2.

B3: Selenomethionine incorporated Methanocaldococcus jannaschii fumarate hydratase α-subunit (of Se-MjFHαβ) (enzyme)
chain: KISDVVVELFREAAIYLPEDVKNALEEAYKKESSEISKNTLKAIIENNKIAEETQVPLCQDTGVPIVFLKIGKNINSSEIMKIIEEIKEGVKKATEEVPLRPNVVHPLTRENFKTNVGLNSPFINIEFDESLDREIEIIAFPKGAGSENMSALKMLKPSDGIEGIKNFVLETIANAGGKPCPPIVVGIGIGGTADVALKLAKKALLRKIGERHRDKEIANLEKELLEKINSLGIGAMGLGGDITALDVFIEIAGCHTASLPVGICIQCWADRRAIKRIKLDAKL
modifications: selenomethionine incorporated (eleven selenium atoms per functional dimer)
B3: binds (crystal structure).
